Measurements published in article doi:10.1101/2024.10.12.618001, “High yield purification of an Isoleucine zipper modified CD95 Ligand with either biotin or DNA-oligomer binding domain for efficient Cell Apoptosis Induction” (bioRxiv, 2024).
Where “and” joins values, the source holds several entries; their conditions need not be identical. Identical values can stand only once.

T1: soluble CD95L (Enzo Life Sciences) (UniProt P48023 130-281)
T1 construct: soluble CD95 ligand (CD95L, Fas ligand); The conclusion calls it the unmodified CD95L; also called sCD95L; source: bought: Enzo Life Sciences
T1 sequence (looked up): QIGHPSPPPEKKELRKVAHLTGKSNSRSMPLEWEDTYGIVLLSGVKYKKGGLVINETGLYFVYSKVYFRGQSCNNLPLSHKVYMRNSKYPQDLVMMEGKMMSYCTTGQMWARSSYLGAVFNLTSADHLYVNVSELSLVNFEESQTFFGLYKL

B1: CD95-His receptor protein (Sino Biological) (receptor, UniProt P25445 26-173, looked up)
chain: QVTDINSKGLELRKTVTTVETQNLEGLHHDGQFCHKPCPPGERKARDCTVNGDEPDCVPCQEGKEYTDKAHFSSKCRRCRLCDEGHGLEVEINCTRTQNTKCRCKPNFFCNSTVCEHCDPCTKCEHGIIKECTLTSNTKCKEEGSRSN
notes: CD95 (Fas, Apo-1) receptor protein with His-tag; also called Fas; Apo-1; source: bought: Sino Biological
B2: CD95L-IZ-His (His8-TEV-Cys-IZ-CD95L (137-281), secreted form) (ligand)
chain: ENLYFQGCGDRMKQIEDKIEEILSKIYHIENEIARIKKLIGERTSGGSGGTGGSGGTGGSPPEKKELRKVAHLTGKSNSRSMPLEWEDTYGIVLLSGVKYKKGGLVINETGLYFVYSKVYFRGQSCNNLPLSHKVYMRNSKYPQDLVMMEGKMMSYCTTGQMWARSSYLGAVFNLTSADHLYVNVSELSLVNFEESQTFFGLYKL
modifications: glycosylated (the paper suggests three to five N-glycans)
notes: TEV protease site ENLYFQ, extra cysteine, isoleucine zipper (IZ, variant of the GCN4 leucine zipper) and linker; CD95 ligand (CD95L, Fas ligand, CD178, TNFSF6), human, extracellular domain, amino acids 137-281; The natural CD95L part is fused to a designed trimerisation motif; also called CD95L-IZ with His-tag; CD95-IZ-His; source: HEK293T, transient transfection (PEI), secreted into the medium; …
B3: CD95L-IZ-biotin (CD95L-IZ after His-tag cleavage, biotinylated at the extra cysteine) (ligand)
chain: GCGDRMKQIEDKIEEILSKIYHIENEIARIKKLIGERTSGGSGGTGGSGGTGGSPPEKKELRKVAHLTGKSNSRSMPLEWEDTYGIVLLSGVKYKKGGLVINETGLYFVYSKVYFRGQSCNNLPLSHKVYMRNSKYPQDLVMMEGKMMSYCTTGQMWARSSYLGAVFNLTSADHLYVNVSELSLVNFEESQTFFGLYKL
modifications: biotin (biotin-C5-maleimide) on the extra cysteine; glycosylated
notes: What is left after TEV cleavage: Gly, extra cysteine, isoleucine zipper (IZ) and linker; CD95 ligand (CD95L, Fas ligand, CD178, TNFSF6), human, extracellular domain, amino acids 137-281; also called CD95L-IZ-X; source: HEK293T, transient transfection, secreted; purified (anti-His-tag antibody agarose beads), His-tag cut with TEV protease, labelled with biotin-C5-maleimide; not shown: His8, …

Tests used:
[1] = molecular target: T1, soluble CD95L (Enzo Life Sciences); test: ELISA; CD95-His coated at 2 µg/ml in PBS overnight at 4 °C; ligand 0.1-100 nM in 0.5 % BSA/PBST, 2 h at r.t.; detected with anti-CD95L antibody and HRP secondary; 4-parameter logistic fit; details: both partners purified
[2] = molecular target: the molecule itself; test: SEC; Superdex 75 10/300 GL, PBS pH 7.4, 0.3 ml/min; 350 µl CD95L-IZ-His at 0.409 mg/ml; protein standard mix for sizes; curve fitted with three Gaussians
[3] = molecular target: B1; test: ELISA; CD95-His coated at 2 µg/ml in PBS overnight at 4 °C; ligand 0.1-100 nM in 0.5 % BSA/PBST, 2 h at r.t.; detected with anti-CD95L antibody and HRP secondary; 4-parameter logistic fit; details: both partners purified

Binder: B1
Kd [1]: 11.3 nM

Binder: B2
stoichiometry N [2]: 3 and 2

Binder: B3
Kd [3]: 0.68 nM
